Experiment [1] deals with T1, recombinant human lymphotoxin-α homotrimer (human LTα3) (human, UniProt P01374 35-205).
T1 construct: Coated on plates in the ELISAs; also called rhLTα; lymphotoxin-α3 trimer
T1 sequence (looked up): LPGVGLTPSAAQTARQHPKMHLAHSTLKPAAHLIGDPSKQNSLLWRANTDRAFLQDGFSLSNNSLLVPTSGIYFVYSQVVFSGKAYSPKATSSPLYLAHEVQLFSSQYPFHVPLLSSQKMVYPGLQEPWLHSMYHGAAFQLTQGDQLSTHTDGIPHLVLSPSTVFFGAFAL
The experiment is described as follows: BIACORE (rhLTα). On the technique in general: SPR reads the build-up and loss of mass on a sensor chip optically.

Experiment [2] concerns the target T1, recombinant human lymphotoxin-α …. The experiment is described as follows: plate ELISA on coated human LTα.
Experiment [3] shares this target. The experiment is described as follows: phage competitive ELISA: rhLTα in solution competes with plate-coated LTα. Here is the method:
For the first round, phage were captured for 2 hours against 2 μg/ml plate-coated LTα at ambient temperature. The second and third rounds of selection were performed at ambient temperature by capturing phage for 30 minutes with 2 nM biotinylated LTα in solution phase, followed by capture on neutravidin-coated plates. The highest affinity clone was identified using a competitive ELISA. Constant concentrations of phage clones (normalized by solid-phase LTα binding OD) were incubated with increasing concentrations of LTα (0-50 nM) in solution before capture on a plate coated with 2 μg/ml LTα.
(An ELISA detects its analyte on a solid surface through an enzyme-linked reagent.)

Experiment [4] has the same target. The experiment is described as follows: plate ELISA on coated LTα.
Experiment [5] shares this target. Kind of experiment: plate-based ELISA against LTα.

Numbering of substitutions follows the chain as printed. Names may count otherwise.

One may read the Kd as a measure of binding affinity in units of concentration. One may read the kon as the rate constant with which the complex forms. For orientation: IC50 means the concentration at which inhibition is half-maximal.

B1: humanized 2C8.v2 (antibody, IgG1, V domains shown)
VH: EVQLVESGGGLVQPGGSLRLSCAASGYTFTSYVIHWVRQAPGKGLEWVGYNNPYNDGTNYNEKFKGRATISSDKSKNTAYLQMNSLRAEDTAVYYCSRPTMLPWFAYWGQGTLVTVSS
VL: DIQMTQSPSSLSASVGDRVTITCRASQAVSSAVAWYQQKPGKAPKLQIYSASHRYTGVPSRFSGSGSGTDFTLTISSLQPEDFATYYCQQHYSTPWTFGQGTKVEIKR
notes: also called Version 2
Regarding B1, in experiment [1], the Kd came out at 0.2 nM and the on-rate (kon) stood at 600000 M⁻¹ s⁻¹. The “ELISA IC50 ratio” value in experiment [2] turned out to be 1.7 ratio.

B2: humanized 2C8.v12 (antibody, V domains shown)
VH: B1 VH with A68F
VL: B1 VL with Q47L
notes: Human kappa / IgG1; also called Version 12; copies: 2 + 2
Consider B2, for which, in experiment [1], the dissociation constant Kd came out at 0.07 nM. The “ELISA IC50 ratio” value in experiment [2] came out at 1 ratio.

B3: phage-displayed 2C8.v2 Fab, wild-type phagemid clone (Fab, V domains shown)
VH: B1 VH
VL: B1 VL
notes: also called wild-type 2C8.v2
On to B3, for which the IC50 in experiment [3] amounted to 3.14 nM.

B4: phage-displayed 2C8 Fab clone G12 (Fab, V domains shown)
VH: B1 VH
VL: B1 VL with Q90K, H91T, Y92F
In the case of B4, in experiment [3], the half-inhibitory concentration (IC50) was 5.34 nM.

B5: phage-displayed 2C8 Fab clone H9 (Fab, V domains shown)
VH: B1 VH
VL: B1 VL with S93Y
Turning to B5, in experiment [3], the IC50 amounted to 3.8 nM.

B6: phage-displayed 2C8 Fab clone G2 (Fab, V domains shown)
VH: B1 VH
VL: B1 VL with H91Y
Consider B6, for which, in experiment [3], the half-maximal inhibitory concentration (IC50) was determined as 4.51 nM.

B7: humanized 2C8.v7 (antibody, V domains shown)
VH: B1 VH
VL: B1 VL with Q47L
notes: Human kappa / IgG1; copies: 2 + 2
Take B7: the dissociation constant (Kd) in experiment [1] was determined as 0.4 nM. Besides, the “ELISA IC50 ratio” value in experiment [2] came out at 1.2 ratio.

B8: phage-displayed 2C8 Fab clone D8 (Fab, V domains shown)
VH: B1 VH
VL: B1 VL with H91F, T94V
With B8, the half-maximal inhibitory concentration (IC50) in experiment [3] worked out at 137 nM.

B9: phage-displayed 2C8 Fab clone H6 (Fab, V domains shown)
VH: B1 VH
VL: B1 VL with Q90E, H91V
notes: also called 2C8 clone H6
As for B9, the 50% inhibitory concentration (IC50) in experiment [3] is 1.1 nM.

B10: phage-displayed 2C8 Fab clone C12 (Fab, V domains shown)
VH: B1 VH
VL: B1 VL with Q90E
For B10, the IC50 in experiment [3] stood at 3.41 nM.

B11: phage-displayed 2C8 Fab clone G7 (Fab, V domains shown)
VH: B1 VH
VL: B1 VL with Q90E, H91N
notes: also called 2C8 clone G7
B11: the IC50 in experiment [3] was determined as 0.57 nM.

B12: humanized 3F12.v2 (antibody, IgG1, name in Kabat numbering, V domains shown)
VH: EVQLVESGGGLVQPGGSLRLSCAASGYTFSSYWIEWVRQAPGKGLEWVGEISPGSGSTNYNEEFKGRATFSADNSKNTLYLQMNSLRAEDTAVYYCADGYHGYWGQGTLVTVSS
VL: DIQMTQSPSSLSASVGDRVTITCKSSQSLLYSTNQKNFLAWYQQKPGKAPKLLIYWASTRDSGVPSRFSGSGSGTDFTLTISSLQPEDFATYYCQQYYSYPRTFGQGTKVEIKR
notes: Built back from 3F12.v5; human kappa / IgG1 constant domains; also called I69F
In the case of B12, in experiment [4], the Relative binding is > 1000 fold down from the chimera.

B13: 3F12 version 13 (3F12.v5 with Y31A, CDR-L1) (antibody, IgG1, V domains shown)
VH: B12 VH with L79A
VL: DIQMTQSPSSLSASVGDRVTITCKSSQSLLASTNQKNFLAWYQQKPGKAPKLLIYWASTRDSGVPSRFSGSGSGTDFTLTISSLQPEDFATYYCQQYYSYPRTFGQGTKVEIK
notes: Alanine-scan variant of 3F12.v5; human kappa / IgG1
With B13, the “relative binding (EC50 of the variant / EC50 of version 5)” value in experiment [5] is 3.4 ratio.

B14: 3F12 version 15 (3F12.v5 with N34A, CDR-L1) (antibody, IgG1, V domains shown)
VH: B12 VH with L79A
VL: B13 VL with A31Y, N34A
notes: Alanine-scan variant of 3F12.v5; human kappa / IgG1; also called 3F12 clone 15
As for B14, in experiment [5], the “relative binding (EC50 of the variant / EC50 of version 5)” value was 0.49 ratio.

B15: 3F12 version 27 (3F12.v5 with N58A, CDR-H2) (antibody, IgG1, V domains shown)
VH: B12 VH with N59A, L79A
VL: B13 VL with A31Y
notes: as for B13
In the case of B15, the “relative binding (EC50 of the variant / EC50 of version 5)” value in experiment [5] was determined as 1.7 ratio.

B16: 3F12 version 24 (3F12.v5 with G53A, CDR-H2) (antibody, IgG1, V domains shown)
VH: B12 VH with G54A, L79A
VL: B13 VL with A31Y
notes: as for B13
With B16, the “relative binding (EC50 of the variant / EC50 of version 5)” value in experiment [5] turned out to be 34.1 ratio.

B17: 3F12 version 19 (3F12.v5 with Y91A, CDR-L3) (antibody, IgG1, V domains shown)
VH: B12 VH with L79A
VL: B13 VL with A31Y, Y97A
notes: as for B13
For B17, the “relative binding (EC50 of the variant / EC50 of version 5)” value in experiment [5] is 2.3 ratio.

B18: 3F12 version 20 (3F12.v5 with Y92A, CDR-L3) (antibody, IgG1, V domains shown)
VH: B12 VH with L79A
VL: B13 VL with A31Y, Y98A
notes: Alanine-scan variant of 3F12.v5; human kappa / IgG1; also called 3F12 clone 20
As for B18, the “relative binding (EC50 of the variant / EC50 of version 5)” value in experiment [5] was 0.71 ratio.

B19: 3F12 version 12 (3F12.v5 with Y102A, CDR-H3) (antibody, IgG1, V domains shown)
VH: B12 VH with L79A, Y103A
VL: B13 VL with A31Y
notes: Alanine-scan variant of 3F12.v5; human kappa / IgG1; also called 3F12 clone 12
B19: in experiment [5], the “relative binding (EC50 of the variant / EC50 of version 5)” value is 0.81 ratio.

B20: 3F12 version 22 (3F12.v5 with Y94A, CDR-L3) (antibody, IgG1, V domains shown)
VH: B12 VH with L79A
VL: B13 VL with A31Y, Y100A
notes: as for B13
Consider B20, for which, in experiment [5], the “relative binding (EC50 of the variant / EC50 of version 5)” value amounted to 14.3 ratio.

B21: 3F12 version 28 (3F12.v5 with Y59A, CDR-H2) (antibody, IgG1, V domains shown)
VH: B12 VH with Y60A, L79A
VL: B13 VL with A31Y
notes: as for B13
As to B21, the “relative binding (EC50 of the variant / EC50 of version 5)” value in experiment [5] turned out to be 2.73 ratio.

B22: 3F12 version 9 (3F12.v5 with Y99A, CDR-H3) (antibody, IgG1, V domains shown)
VH: B12 VH with L79A, Y100A
VL: B13 VL with A31Y
notes: as for B13
With B22, the “relative binding (EC50 of the variant / EC50 of version 5)” value in experiment [5] was 10 ratio.

B23: 3F12 version 30 (3F12.v5 with E61A, CDR-H2) (antibody, IgG1, V domains shown)
VH: B12 VH with E62A, L79A
VL: B13 VL with A31Y
notes: as for B13
Regarding B23, in experiment [5], the “relative binding (EC50 of the variant / EC50 of version 5)” value worked out at 1.78 ratio.

B24: 3F12 version 25 (3F12.v5 with G55A, CDR-H2) (antibody, IgG1, V domains shown)
VH: B12 VH with G56A, L79A
VL: B13 VL with A31Y
notes: as for B13
Consider B24, for which, in experiment [5], the “relative binding (EC50 of the variant / EC50 of version 5)” value worked out at 1.2 ratio.

B25: 3F12 version 26 (3F12.v5 with S56A, CDR-H2) (antibody, IgG1, V domains shown)
VH: B12 VH with S57A, L79A
VL: B13 VL with A31Y
notes: as for B13
Regarding B25, the “relative binding (EC50 of the variant / EC50 of version 5)” value in experiment [5] was determined as 1.07 ratio.

B26: 3F12 version 14 of Table 2 (3F12.v5 with T33A, CDR-L1) (antibody, IgG1, V domains shown)
VH: B12 VH with L79A
VL: B13 VL with A31Y, T33A
notes: Alanine-scan variant of 3F12.v5; human kappa / IgG1; also called 3F12 clone 14
B26: in experiment [5], the “relative binding (EC50 of the variant / EC50 of version 5)” value amounted to 0.72 ratio.

B27: humanized 3F12.v4 (antibody, IgG1, name in Kabat numbering, V domains shown)
VH: B12 VH with F70I, L79A
VL: B12 VL
notes: Built back from 3F12.v5; human kappa / IgG1 constant domains; also called L78A
As for B27, the Relative binding in experiment [4] is > 500 fold down from the chimera.

B28: 3F12 version 17 (3F12.v5 with F38A, CDR-L1) (antibody, IgG1, V domains shown)
VH: B12 VH with L79A
VL: B13 VL with A31Y, F38A
notes: Alanine-scan variant of 3F12.v5; human kappa / IgG1; also called 3F12 clone 17
Turning to B28, the “relative binding (EC50 of the variant / EC50 of version 5)” value in experiment [5] came to 0.32 ratio.

B29: 3F12 version 16 (3F12.v5 with K36A, CDR-L1) (antibody, IgG1, V domains shown)
VH: B12 VH with L79A
VL: B13 VL with A31Y, K36A
notes: as for B13
As for B29, the “relative binding (EC50 of the variant / EC50 of version 5)” value in experiment [5] worked out at 3.7 ratio.

B30: 3F12 version 31 (3F12.v5 with E62A, CDR-H2) (antibody, IgG1, V domains shown)
VH: B12 VH with E63A, L79A
VL: B13 VL with A31Y
notes: as for B13
B30: the “relative binding (EC50 of the variant / EC50 of version 5)” value in experiment [5] was 1.93 ratio.

B31: 3F12 version 18 (3F12.v5 with Q89A, CDR-L3) (antibody, IgG1, V domains shown)
VH: B12 VH with L79A
VL: B13 VL with A31Y, Q95A
notes: as for B13
Consider B31, for which the “relative binding (EC50 of the variant / EC50 of version 5)” value in experiment [5] was 4.2 ratio.

B32: 3F12 version 29 (3F12.v5 with N60A, CDR-H2) (antibody, IgG1, V domains shown)
VH: B12 VH with N61A, L79A
VL: B13 VL with A31Y
notes: as for B13
For the molecule B32, the “relative binding (EC50 of the variant / EC50 of version 5)” value in experiment [5] was 2.31 ratio.

B33: 3F12 version 23 (3F12.v5 with R96A, CDR-L3) (antibody, IgG1, V domains shown)
VH: B12 VH with L79A
VL: B13 VL with A31Y, R102A
notes: as for B13
Regarding B33, in experiment [5], the “relative binding (EC50 of the variant / EC50 of version 5)” value turned out to be 18.2 ratio.

B34: 3F12 version 21 (3F12.v5 with S93A, CDR-L3) (antibody, IgG1, V domains shown)
VH: B12 VH with L79A
VL: B13 VL with A31Y, S99A
notes: Alanine-scan variant of 3F12.v5; human kappa / IgG1; also called 3F12 clone 21
Regarding B34, the “relative binding (EC50 of the variant / EC50 of version 5)” value in experiment [5] is 0.82 ratio.

For the origin of these results see patent US20130011412A1 (Genentech, published 2013).
